Consider 41 sequences from the nanobody polyreactivity screen of Harvey et al. (2022).

The data set is described as follows: yeast display, Sf9 membrane polyspecificity reagent, FACS + sequencing; frameworks hold sequencing errors. A digest of the protocol:
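In a synthetic yeast display library (Saccharomyces cerevisiae BJ5465), nanobody expression was induced with galactose for 36–48 hours. FACS gates were set low and high (top ~1%) using anti-HA fluorescence for expression and streptavidin fluorescence for binding of the Sf9 membrane reagent. Each polyreactivity label is drawn from the gate of origin.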
For the sequence “QVQLVESGGGLVQAGGSLRLSCAASGSIFTVNTMGWYRQAPGKERELVATISKRGGRTYYADSVKGRFTISRDNAKNTVYLQMNSLKPEDTAVYYCNRVASGYPVGTSIDYGYWGQGTQVTVSS”, the “polyreactivity (PSR sort gate)” value was “high polyreactivity”.
Consider “QVQLVESGGGLVQAGGSLRLSCAASGSILWQYAMGWYRQAPGKERELVAAISTGGSTYYAESVKGRFTISRDNAKNTVYLQMNSLKPEDTAVYYCAAYVDYSVYFGGGYWGQGTQVTVSS”, for which the “polyreactivity (PSR sort gate)” value is reported as “low polyreactivity”.
Next, “QVQLVESGGGLVQAGGSLRLSCAASGYTFYANAMGWYRQAPGKEREFVASITWSGGSTYYPDSVKGRFTISRDNAKNTVYLQMNSLKPEDTAVYYCAAESWFKYDYWGQGTQETVSS”: “low polyreactivity”; “QVQLVESGGGLVQAGGSLRLSCAASGSNITYYAMGWYRQAPGKERELVAAINLSGDITYYADSVKGRFTISRDNAKNTVYLQMNSLKPEDTAVYYCAAESASSRPYFNSIHRRDSWGQGTQVTVSS”: “low polyreactivity”; “QVQHVESGGGLVQAGGSLRLSCAASGLTSRYYAMGWYRQAPGKERELVAAISSRGGRTYYADSVKGPFTISRDNAKNTVYLQMNSLKPEDTAVYYCNAVRGYSGNLRDYWGQGTQVTVSS”: “high polyreactivity”.
As for “QVQLVESGGVLVQAGGSLRLSCAASGSTFGPNAMGWYRQAPGKERELVAAIRSNGGRTYYADSVKGRFTISRDNAKNTVYLQMNSLKPEDTAVYYCAAPHYPYDTPYGYWGQGTQVTVSS”, the “polyreactivity (PSR sort gate)” value is on record as “low polyreactivity”.
For “QVQLVESGGGLVQAGGILRLSCAASGFTFSSNAMGWYRPAPGKERELVAAISKGGGSTYYADSVKGRFTISRDNAKNSVYLQMNSLKPEDTAVYYCATRRRGGLTFDSWGQGTQVTVSS”, the “polyreactivity (PSR sort gate)” value is on record as “high polyreactivity”.
As for “QVQLVESGGGLVQAGGSLRLSCAASGRTFAKYAMGWYRQAPGKERELVAAINSSGGSTYYADSVKGRFTISRDNAKNTVYLQMNSLKPEDTAVYYCAALGIGSYRRYSGYDYWGQGTQVTVSS”, the “polyreactivity (PSR sort gate)” value was “low polyreactivity”.
Next, “QVQLVESGGCLVQAGGSLRLSCAASGSTFDGNAMGWYRQAPGKERELVATINSGSSTTYADSVKGRFTISRDNAKNTVYLQMNSLKPEDTAVYYCNVDSGSDSLVYSVRYNYWGQGTQVTVSS”: “low polyreactivity”.
Regarding “QVQLVESGGGLDHAGGSLRLSCADSGRIFNYNAMGWYIQAPGKESELVAAISWDGGSTYYADSVKGRFTISRDNAKNTVYLQINSLKPEDSAVYYCAAQYIWSSYRYYYWGQGTQVTVSS”, the “polyreactivity (PSR sort gate)” value is “high polyreactivity”.
In the case of “QVQLVESGAGLVQAGGSLRLSCAASGSIYVYAMGWSRQAPGKERELVAAISWSDGSTYYADSVKGRFTISRDNAKNTVYLQMNSLKPEDTAVYYCNAYGIQVDTYWQDRVEYDYWGQGTQVTVSS” it was “high polyreactivity”.
For “QVQLVESGGGLVQAGGSLRLSCAASGFILKDNAMGWYRQAPGKERELVAAISSGGGTYYADSVKGRFTISRDNAKNTVSLKMNSLKPEDTAVYYCNADDLYSLNDSSEDYWGQGTQVTVSS”, the “polyreactivity (PSR sort gate)” value is reported as “high polyreactivity”.
In the case of “QVQLVESGGGLVQAGGSLRLSCAASGFIFRYYARGWYRQAPGKERELVAAITSTGRTYYADSVKGRFTISRDNAKNTVYLQMNSLKPEDTAVYYCAKAWLRWGEDYWGQGTQVTVSS” it was “low polyreactivity”.
Next, “QVQLVESGGGLVQAGGSLRLSCAASGRTFTFYTMGWYRQAPGKERELVAAITSGGSTYYADSVKGRFTISRDNAKNTVYLQMNSLKPEDTAVYYCAAKYYYTYYYWGQGTQVTVSS”: “high polyreactivity”; “QDQLVESGGGLVQAGGSLRLSCAASGSSFLVYAMGWYRQATGKEREFVAAIRGGGSTNYADSVKGRFTISRDNAMNTVYLQMNSLKPEDTAVYYCAAYLLYTPSMDYWGQGTQVTVSS”: “low polyreactivity”.
In the case of “QVQLVESGGGLVQAGGSLRLSCAASGSTFLRNVMGWYRQAPGKERELVAAISSRGGSTHYADSVKGRFTISRDNAKNTVYLQMNSLKPEDTAVYYCNSERTAAQYVRAAYDYWGQGTQVTVSS” it was “low polyreactivity”.
With “QVQLVESGGGLVQAGGSLRLSCAASGSIFRYNAMGRYRQAPGKERELVAAITSNGGSTYYADSVKGRFTISRDNAKNTVYLQMNCQKPEDTAVYYCNAVYTFTRRYGYWGQGTQVTVSS”, the “polyreactivity (PSR sort gate)” value was “high polyreactivity”.
In the case of “QVQLVESGGGIVQAGGSLRLSCAASGFTILRYVMGWYRQAPGKERELVAAISYSGGRTYYADSVKGRFTISRDNAKHTVYLHMNSLKPEDPAVYYCAAARPFGYPPVMKYDYWGQVTQVTVSS” it was “high polyreactivity”; in that of “QVQLVESGGGLVQAGGSLRISCAASGSIFTSNVMGWYRQAPGKERELVAAITITGTTNYADSVKGRFTISRDNAKNTVYLQMNSLKPEDTAVYYCAKRYYRFYQGWPPEDYWGQGTQVTVSS”, “low polyreactivity”; in that of “QVQLVESGGGLVQAGGSLRLSCAASGRTFGVYAMGWYRQAPGKERELVAAISRRAGNTYYADSVKGRFTISRDNAKNTVYLQMNSLKPEDTAVYYCAADFSRQYGYWGQGTQVTVSS”, “high polyreactivity”.
As for “QVQLVESGGGLVQAGGSLRLSCAASGSTFVDYAMGWYRQAPGKERELVAAISFSDGSTYYADSVKGRFTISRDNAKNTVYLQMNSLKPEDTAVYYCAKDAYWGYRWYTYDYWGQGTQVTVSS”, the “polyreactivity (PSR sort gate)” value was “low polyreactivity”.
In the case of “QVQLVESGGGLVQAGGTLPLSCAASGFTVRSYAMGWYRQAPGEEREIVAAISRLGDSTYFADSVKGRFTISRDNAKNTVYLQMYSLITEDTAVYYCAKYGIASRFSRFDSWGQGTQVTVSS” it was “high polyreactivity”; in that of “QVQLVESGGGLVQAGGSLRLSCAASGGIFIGYAMGWYRPAPGKERELVARIRSSGGTTYYADSVKGRFTISRDNAKNTVYLQMNSLKPEDTAVYYCAKRTSSSWAYGPYYYWGQGTQVTVSS”, “high polyreactivity”.
Turning to “QVQLVESGGGLVQAGGSLRLSCAASGFIFSSYAMGWYRQATGKERELVATISWSGGSTYYADSVKGRFTISRDNAKNTVYLQMNSLKPEDTAVYYCAAGYQRYLQRPEFYYWGQGTQVTVSS”, the “polyreactivity (PSR sort gate)” value is reported as “high polyreactivity”.
Next, “QVQLVESGGGLVQAGGSLRLSCAASGSTFPGNAMGWYRQAPGKERELVASISGGGDSTYYADSVKGRFTISRDNAKNTVYLQMNSLKPEDTAVYYCAADYRQEPGYTGYYYWGQGTQLTVSS”: “low polyreactivity”; “QVQLVESGGGLVQAGGSHRLSCAASGSTFAGNAMGWYRQAPGKERELVAAISGSGGITYYADSVKGRFTISRDNAKNTVYLQMNSLKPEDTAVYYCNAYYWFSRYGYWGQGTQVTVSS”: “high polyreactivity”; “QVQLVESGGALVQAGGSLRLSCAASGSIIVYNDMRSSRQAPGKQRELVAAITSSGGSTYYADSVKGRFTISRDNAKNTVYLQMNSLKPEDTAVYYCNVWDRPLTGYDYRGQGTQVTVSS”: “low polyreactivity”.
Regarding “QVQLVESGGGLLQAGGSLRLSCAASGRILGPNAMGWYRQAPGTERELVAAINSGGSTNYADSVKGRFTISRDNAKNTVYLQMNSLKPEDTAVYYCATDKARVAGYGVEYDYWGQGTQVTVSS”, the “polyreactivity (PSR sort gate)” value is listed as “low polyreactivity”.
In the case of “QVQLVESGGGLVQAGGSLRLSCAASGLTFGRNAMGWYRQAPGKERELVAAIRWSGGSTYYADSVKGRFTISRDNAKNTVYLQMNSLKPEDTAVYYCAATRVLRPVGTHYYYWGQGTQVTVSS” it was “high polyreactivity”; in that of “QVQLVESGGGLVQAGGSLRLSCAASGRTFYWYAMGWYRQAPGKERELVAAIRWSTGSTYYADSVKGRFTISRDNAKNTVYLQMNSLKPEDTAVYYCAATRPSWRYNYWGQGTQVTVSS”, “high polyreactivity”.
Turning to “QVQLVESGGGLVQAGGSLRISCAASGRIFTPNAMGWYRQAPGKERELVAAITWSGDNTYADSVKGRFTISRDNAKKTVYLHMNTLKPEDTAVYYCAAAYGYGHKKYGYWGQGTQVTVSS”, the “polyreactivity (PSR sort gate)” value is on record as “low polyreactivity”.
Next, “QVQLVESGGGLVQAGGSLRLSCAASGRTFVTYAKGWYRQAPGKERELVAAISASGGSTYYADSVKGRFTISRDNAKNTVYLQMNSLNPEDTAVYYCAKTYFLATPYGYWGQGTQVTVSS”: “low polyreactivity”.
Next, “QFQLVESGGGLVQAGGSLRLSCAASGRTFTYNAMGWYRQAPGKERELVAAINSGGSTNYADSVKGRFTISRDNAKNTVYLQMNSLKPEDTAVYYCNAGFGFGSSRYGTRYYYWGQGTQVTVSS”: “low polyreactivity”; “QVQLVESGGGLVQAGGSLRLSCDAAGLIFRLNAMGWYRPAPGKERELVAAISFSGGGTYYADSVKGRFTISRDNAKNTVYLQMNSLKPEDTAVYFCAADEYAVYYYYNYEYWGQGTQVTVSS”: “high polyreactivity”.
In the case of “QVQLVESGGGLVQAGGSLRLSCAASGSTFAYYAMGWYRQAPGKERELVAAISVSGGRTYYADSVKGRFTISRDNAKNTVYLQMNSLKPEDTAVYYCAKRFIYGRYNYWGQGTQVTVSS” it was “high polyreactivity”; in that of “QVQLQESGGGLVQAGGSLRLSSAASGTIFRFRYMGWHRQAPGKERELVAGINGGTTTYYADSVIGRFTISRDNAKNTVYLQMNSLKPDDTAVYNCAAGASRLTYYDYWGQGTQVTVSS”, “low polyreactivity”; in that of “QVQLVESGGGLVQAGGSLRLSCAASGFTFYKYTMGWYRQAPGKERELVAAISARGGSTYYADSVKGRFTISRDNAKNTVYLQMNSLKPEDTSVYYCAADFWRTYGLGYDYWGQGTQVTVSS”, “high polyreactivity”.
Take “QVQLVESGGGLVQARGSLRLSCAASGFTFAFYAMGWYRQAPGKEMELVAAITGSGGSTYDADSVKGRFTISRDNAKNTVYLQLNSLKPEDTAVYYCFTRGGYYLYYSYYYWGQGTQVTVSS”: the “polyreactivity (PSR sort gate)” value is “high polyreactivity”.
Next, “QVLLQESGGGLVLAGGSLRLGCAASGTISPAYYMGRYHQAPGKEREFVAAITYGTNTYYADSVKGRFTISRDNAKYTVYLQMHSLKPEDTAVYYCSATAGYNGAHDYWGQGTQVTVSS”: “low polyreactivity”; “QVQLVESGGGLVQAGGSLRLSCAASGFTFTAYAMGWYRQAPGKERELVAAISNRGGRTYYADSVKGRFTFSRDNAKNTVYLQMNSLKPEDTAVYYCAAGYSYAQYSYPFLSFAFGYWGQGTQVTVSS”: “high polyreactivity”.
On to “QVQLVESGGGLVQAGGSLRLSCAASGSTFDANAMGWYRQAPGKERELVAAISSSGVRTYYADSVKGRFTISRDNAKNTVYLQMNSLKPEDTAVYYCAAGVVISTVDVTYGYWGQGTQVTVSS”, for which the “polyreactivity (PSR sort gate)” value is reported as “low polyreactivity”.
